Common to all, as to experiment: cell-based or functional assay
The target in experiment [1] is T1, recombinant human PAD2 (human, UniProt Q9Y2J8 1-665).
Experiment [2] has as its target T2, recombinant human PAD4 (human, UniProt Q9UM07 1-663).
Experiment [3] addresses T1, recombinant human PAD2. The source holds these as a separate data set.
Experiment [4] concerns the target T2, recombinant human PAD4. This is another data set of the same source.
The target of experiment [5] is T1, recombinant human PAD2. The source holds these as a separate data set.
Experiment [6] addresses T2, recombinant human PAD4. This is another data set of the same source.

Numbered stars: 1 amine (or outer) side, 2 acyl side, 3 side chain; on linkers, the order of the positions; unused ones are H or OH. Square brackets hold non-standard residues; d marks the D form. Ends that are not written are not given here. O(CA) = ornithine chloroamidine, N=C(CCl)NCCC[C@H](N[*:1])C(=O)[*:2]; Orn(fluoroacetimidoyl) = N=C(CF)NCCC[C@H](N)C(=O)O

T1 sequence (Q9Y2J8 whole entry): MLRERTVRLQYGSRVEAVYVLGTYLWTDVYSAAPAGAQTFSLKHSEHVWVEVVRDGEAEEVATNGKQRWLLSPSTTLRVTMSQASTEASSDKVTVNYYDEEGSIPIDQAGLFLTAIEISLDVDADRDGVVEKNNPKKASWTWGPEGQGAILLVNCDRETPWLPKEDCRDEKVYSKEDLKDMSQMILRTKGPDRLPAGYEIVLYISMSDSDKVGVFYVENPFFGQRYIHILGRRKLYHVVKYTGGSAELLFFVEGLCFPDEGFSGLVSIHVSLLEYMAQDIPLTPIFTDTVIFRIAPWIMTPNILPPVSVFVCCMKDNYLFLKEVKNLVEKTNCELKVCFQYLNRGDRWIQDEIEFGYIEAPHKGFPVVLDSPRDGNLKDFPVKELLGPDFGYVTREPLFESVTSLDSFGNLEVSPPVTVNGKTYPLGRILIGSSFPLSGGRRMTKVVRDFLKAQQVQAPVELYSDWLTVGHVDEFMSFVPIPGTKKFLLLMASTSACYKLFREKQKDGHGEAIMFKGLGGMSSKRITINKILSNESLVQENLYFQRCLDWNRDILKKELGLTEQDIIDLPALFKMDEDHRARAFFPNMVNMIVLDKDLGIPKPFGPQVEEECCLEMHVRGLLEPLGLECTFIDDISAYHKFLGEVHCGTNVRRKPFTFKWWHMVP
T2 sequence (Q9UM07 whole entry): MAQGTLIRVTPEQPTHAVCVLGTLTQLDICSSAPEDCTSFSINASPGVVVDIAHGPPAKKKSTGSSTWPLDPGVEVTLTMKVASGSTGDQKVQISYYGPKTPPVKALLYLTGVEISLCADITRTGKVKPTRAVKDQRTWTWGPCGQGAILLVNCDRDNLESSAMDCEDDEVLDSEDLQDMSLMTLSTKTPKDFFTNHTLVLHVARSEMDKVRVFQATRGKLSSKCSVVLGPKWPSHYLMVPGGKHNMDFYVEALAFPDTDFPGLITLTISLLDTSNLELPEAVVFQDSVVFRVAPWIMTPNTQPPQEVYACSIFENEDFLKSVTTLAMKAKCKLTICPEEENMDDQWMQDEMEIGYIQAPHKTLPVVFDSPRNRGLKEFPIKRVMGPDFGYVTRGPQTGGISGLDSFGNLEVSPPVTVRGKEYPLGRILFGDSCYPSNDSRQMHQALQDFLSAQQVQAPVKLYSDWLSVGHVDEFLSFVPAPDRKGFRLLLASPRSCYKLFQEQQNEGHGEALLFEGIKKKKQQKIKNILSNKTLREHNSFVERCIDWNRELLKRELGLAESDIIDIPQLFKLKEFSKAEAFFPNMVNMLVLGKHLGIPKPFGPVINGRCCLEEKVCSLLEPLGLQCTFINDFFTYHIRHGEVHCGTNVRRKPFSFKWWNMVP

B1: S-S-O(FA)-D-G (peptide)
peptide: SS[Orn(fluoroacetimidoyl)]DG
B1: the “IC50 values (µM), ABAP PAD activity assay” value with recombinant human PAD2 [1] was found to be 14 µM; with recombinant human PAD4 [2] it was 177 µM.

B2: Y-D-O(CA)-G-S (peptide)
peptide: YD[O(CA)]GS
Regarding B2, the “IC50 values (µM), ABAP PAD activity assay, second round” value (“IC50 values (µM) … second round” for short) amounted to 58 µM with recombinant human PAD2 [3] and 44 µM with recombinant human PAD4 [4].

B3: T-D-O(CA)-G-S (peptide)
peptide: TD[O(CA)]GS
B3: the “IC50 values (µM), ABAP PAD activity assay” value came to 34 µM in the experiment with recombinant human PAD2 [1] and 153 µM in the experiment with recombinant human PAD4 [2].

B4: G-D-O(CA)-S-G (peptide)
peptide: GD[O(CA)]SG
As for B4, the “IC50 values (µM), ABAP PAD activity assay” value with recombinant human PAD2 [1] is 76 µM; with recombinant human PAD4 [2] it was 189 µM.

B5: S-S-O(CA)-D-G (peptide)
peptide: SS[O(CA)]DG
For B5, the “IC50 values (µM), ABAP PAD activity assay” value with recombinant human PAD2 [1] turned out to be 55 µM; with recombinant human PAD4 [2], 203 µM.

B6: K W H O(FA) D F F (peptide)
peptide: KWH[Orn(fluoroacetimidoyl)]DFF
For B6, the “IC50 values (µM) … second round” value with recombinant human PAD2 [3] worked out at 16 µM; with recombinant human PAD4 [4], 161 µM.

B7: G-D-O(FA)-S-G (peptide)
peptide: GD[Orn(fluoroacetimidoyl)]SG
As for B7, the “IC50 values (µM), ABAP PAD activity assay” value came to 17 µM with recombinant human PAD2 [1] and 178 µM with recombinant human PAD4 [2].

B8: G-D-O(CA)-G-S (peptide)
peptide: GD[O(CA)]GS
As to B8, the “IC50 values (µM) … second round” value was found to be 38 µM in the experiment with recombinant human PAD2 [3] and 60 µM in the experiment with recombinant human PAD4 [4].

B9: 0748-01FA (peptide)
peptide: Ac-HFD[Orn(fluoroacetimidoyl)]EWI-NH2
SMILES: CC[C@H](C)[C@H](NC(=O)[C@H](Cc1c[nH]c2ccccc12)NC(=O)[C@H](CCC(=O)O)NC(=O)[C@H](CCCNC(=N)CF)NC(=O)[C@H](CC(=O)O)NC(=O)[C@H](Cc1ccccc1)NC(=O)[C@H](Cc1c[nH]cn1)NC(C)=O)C(N)=O
Take B9: in the experiment with recombinant human PAD2 [5], the “conversion of 0708-30 by PAD2, 10 µM inhibitor (0 µM: 68)” value was found to be 67%; the “conversion of 0708-30 by PAD2, 50 µM inhibitor (0 µM: 68)” value worked out at 36%; the “conversion of 0708-30 by PAD2, 100 µM inhibitor (0 µM: 68)” value was 21%. Further, in the experiment with recombinant human PAD4 [6], the “conversion of 0708-30 by PAD4, 10 µM inhibitor (0 µM: 81)” value stood at 50%; the “conversion of 0708-30 by PAD4, 50 µM inhibitor (0 µM: 81)” value was 25%; the “conversion of 0708-30 by PAD4, 100 µM inhibitor (0 µM: 81)” value came to 12%.

B10: K F D O(FA) D F I (peptide)
peptide: KFD[Orn(fluoroacetimidoyl)]DFI
As to B10, the results for the “IC50 values (µM) … second round” value with recombinant human PAD2 [3] and with recombinant human PAD4 [4] were 17 µM and 122 µM, respectively.

B11: G-S-O(CA)-D-G (peptide)
peptide: GS[O(CA)]DG
In the case of B11, the entries for the “IC50 values (µM), ABAP PAD activity assay” value in the experiment with recombinant human PAD2 [1] and with recombinant human PAD4 [2] were 172 µM and 816 µM, respectively.

B12: G-S-O(FA)-D-G (peptide)
peptide: GS[Orn(fluoroacetimidoyl)]DG
B12: the “IC50 values (µM), ABAP PAD activity assay” value is 18 µM with recombinant human PAD2 [1] and 443 µM in the experiment with recombinant human PAD4 [2].

B13: 0748-17FA (peptide)
peptide: Ac-KLH[Orn(fluoroacetimidoyl)]EWM-NH2
SMILES: CSCC[C@H](NC(=O)[C@H](Cc1c[nH]c2ccccc12)NC(=O)[C@H](CCC(=O)O)NC(=O)[C@H](CCCNC(=N)CF)NC(=O)[C@H](Cc1c[nH]cn1)NC(=O)[C@H](CC(C)C)NC(=O)[C@H](CCCCN)NC(C)=O)C(N)=O
On to B13, for which, in the experiment with recombinant human PAD2 [5], the “conversion of 0708-30 by PAD2, 10 µM inhibitor (0 µM: 68)” value was determined as 58%; the “conversion of 0708-30 by PAD2, 50 µM inhibitor (0 µM: 68)” value was 35%; the “conversion of 0708-30 by PAD2, 100 µM inhibitor (0 µM: 68)” value is 24%. Also, in the experiment with recombinant human PAD4 [6], the “conversion of 0708-30 by PAD4, 10 µM inhibitor (0 µM: 81)” value turned out to be 64%; the “conversion of 0708-30 by PAD4, 50 µM inhibitor (0 µM: 81)” value was found to be 32%; the “conversion of 0708-30 by PAD4, 100 µM inhibitor (0 µM: 81)” value came to 18%.

The values above are taken from patent US20110142868A1 (CHIRALIX B V, published 2011).
